As usually defined, the kon is the second-order rate constant of association. A lower kon goes with slower complex formation.

Assay [1] addresses TAT-Troponin. In words: BLI.
Assay [2] concerns the target TAT-Troponin. Description: BLI; after the dissociation phase the sensors (1000 nM analyte samples) were moved into binding buffer with 10 mM EDTA, nm shift measured for 300 s; 25°C.

For Troponin inhibitory peptide-myoglobin, the kon with TAT-Troponin [1] was found to be 3700 M⁻¹ s⁻¹. Further, the koff (EDTA) in the assay with TAT-Troponin [2] was found to be 0.018 s⁻¹.

The values above are taken from PMC5446193.
